Each block holds one binder with its values, some of them ahead of it. *1 amine or outer side, *2 acyl side, *3 side chain or, on linkers, in order; H or OH if unused. Bridges are numbered along the chain shown (N, C = ends). Primed or numbered codes have the meaning given here. [ ]: non-standard residue; d: D form. PyrS2(6) = (S)-3-amino-1-((pent-4-en-1-yloxy)carbonyl)pyrrolidine-3-carboxylic acid, stapled with another olefin-containing amino acid residue through the olefin group, O=C(OCCCC=[*:3])N1CC[C@@](N[*:1])(C(=O)[*:2])C1; B5(4) = 2-amino-2-(pent-4-en-1-yl)hept-6-enoic acid, stapled through each of its two olefin groups with other olefin-containing amino acid residues, O=C(C(CCCC=[*:3])(CCCC=[*:4])N[*:1])[*:2]; PyrS2″ = (S)-3-amino-1-((pent-4-en-1-yloxy)carbonyl)pyrrolidine-3-carboxylic acid (olefin stapling residue), C=CCCCOC(=O)N1CC[C@@](N[*:1])(C(=O)[*:2])C1; PyrS2 = (S)-3-amino-1-((pent-4-en-1-yloxy)carbonyl)pyrrolidine-3-carboxylic acid, olefin staple residue, C=CCCCOC(=O)N1CC[C@@](N[*:1])(C(=O)[*:2])C1; TriAzLys = (S)-2-amino-5-(1H-1,2,3-triazol-1-yl)pentanoic acid, stapled through triazole 4-position, O=C([C@H](CCCn1cc([*:3])nn1)N[*:1])[*:2]; PyrS2(5) = (S)-3-amino-1-((pent-4-en-1-yloxy)carbonyl)pyrrolidine-3-carboxylic acid, C=CCCCOC(=O)N1CC[C@@](N[*:1])(C(=O)[*:2])C1; B5″ = 2-amino-2-(pent-4-en-1-yl)hept-6-enoic acid (bis-olefin stapling residue), C=CCCCC(CCCC=C)(N[*:1])C(=O)[*:2]; B5(5) = 2-amino-2-(pent-4-en-1-yl)hept-6-enoic acid (two olefin arms), C=CCCCC(CCCC=C)(N[*:1])C(=O)[*:2]; TriAzLys″ = azidolysine residue closed into triazole staple, O=C([C@H](CCCCn1cc([*:3])nn1)N[*:1])[*:2]; Phe(3-COOH) = N[C@@H](Cc1cccc(C(=O)O)c1)C(=O)O; 2F3MeF = Cc1cccc(C[C@H](N[*:1])C(=O)[*:2])c1F; Abu(4-yl) = O=C([C@H](CC[*:3])N[*:1])[*:2]; Bta = N[C@@H](Cc1csc2ccccc12)C(=O)O; αAllylPro = C=CC[C@@]1(C(=O)O)CCCN1; tBuAla = CC(C)(C)C[C@H](N)C(=O)O; 3Thi = N[C@@H](Cc1ccsc1)C(=O)O; TriAzLys(3) = not defined here; 2F3MeF(4) = Phe analogue; Orn = NCCC[C@H](N)C(=O)O; dGlnR = not defined here; AsnR = not defined here; GlnR = not defined here; sAla = not defined here; PL3 = not defined here; B5 = not defined here; Aib = CC(C)(N)C(=O)O
Tests used:
[1] = molecular target: beta-catenin (human); assay: cell-based or functional assay
[2] = molecular target: beta-catenin (human); assay: fluorescence polarization

Sequence of beta-catenin (human) (B6V8E6 146-665 limits assumed): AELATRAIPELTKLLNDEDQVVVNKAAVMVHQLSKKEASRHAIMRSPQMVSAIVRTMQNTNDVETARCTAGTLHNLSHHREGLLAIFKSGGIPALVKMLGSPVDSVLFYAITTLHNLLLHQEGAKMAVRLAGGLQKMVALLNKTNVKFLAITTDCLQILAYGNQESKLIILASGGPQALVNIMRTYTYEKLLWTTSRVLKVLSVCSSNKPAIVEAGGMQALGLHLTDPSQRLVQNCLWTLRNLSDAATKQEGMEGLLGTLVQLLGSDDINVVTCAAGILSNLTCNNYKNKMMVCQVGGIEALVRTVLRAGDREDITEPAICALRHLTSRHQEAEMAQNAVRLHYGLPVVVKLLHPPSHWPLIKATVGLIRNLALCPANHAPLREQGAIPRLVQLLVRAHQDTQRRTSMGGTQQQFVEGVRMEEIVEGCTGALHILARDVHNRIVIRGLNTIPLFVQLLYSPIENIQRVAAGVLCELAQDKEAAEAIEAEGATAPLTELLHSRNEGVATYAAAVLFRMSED

AXIN2 expression IC50, COLO320DM cells [1]: 300 nM | AXIN2 expression IC50, DLD1 cells [1]: 1600 nM | SP5 expression IC50, DLD1 cells [1]: 1300 nM | IC50 [2]: < 50 nM
B1: I-66 (peptide)
peptide: Ac-[αAllylPro]D[tBuAla][B5]D[Phe(3-COOH)][Aib]AFK[PyrS2][3Thi][Bta][GlnR]A-NH2
modifications: staple 1-4, 4-11; lactam 10-14; not fully specified; printed as Ac-PL3-Asp-Npg-B5-Asp-3COOHF-Aib-Ala-Phe-Lys*3-PyrS2-3Thi-BztA-GlnR*3-Ala-NH2; reading uncertain

NanoBRET Abs IC50 [1]: < 1500 nM | IC50 [2]: < 50 nM
B2: I-32 (peptide)
peptide: Ac-[αAllylPro]D[tBuAla][B5(4)]D[Phe(3-COOH)]AAFK[PyrS2(6)][3Thi][Bta][GlnR]-NH2
modifications: bridge 10-14; not fully specified (bridges); printed as Ac-PL3-Asp-Npg-B5-Asp-3COOHF-Ala-Ala-Phe-Lys*3-PyrS2-3Thi-BztA-GlnR*3-NH2; reading uncertain

NanoBRET Abs IC50 (bin >3.0 uM) [1]: < 10000 nM | IC50 [2]: < 50 nM
B3: I-16 (peptide)
peptide: Ac-[αAllylPro]DL[B5″]D[Phe(3-COOH)]AAF[GlnR][PyrS2″][3Thi][Bta]K-NH2
modifications: bridge 10-14; reading uncertain; also: PL3-B5 and PyrS2 links not placed, printed as Ac-PL3-Asp-Leu-B5-Asp-3COOHF-Ala-Ala-Phe-GlnR*3-PyrS2-3Thi-BztA-Lys*3-NH2

NanoBRET Abs IC50 (bin >1.5 uM) [1]: < 3000 nM | IC50 [2]: < 50 nM
B4: I-15 (peptide)
peptide: Ac-[αAllylPro]DL[B5″]D[Phe(3-COOH)]AAF[GlnR][PyrS2″][3Thi][Bta]K-NH2
modifications: bridge 10-14; reading uncertain; also: PL3-B5 and PyrS2 links not placed, printed as Ac-PL3-Asp-Leu-B5-Asp-3COOHF-Ala-Ala-Phe-GlnR*3-PyrS2-3Thi-BztA-Lys*3-NH2

NanoBRET Abs IC50 [1]: > 10000 nM | IC50 [2]: < 50 nM
B5: I-39 (peptide)
peptide: Ac-[αAllylPro]D[tBuAla][B5(5)]D[Phe(3-COOH)]AAF[Orn][PyrS2(5)][3Thi][Bta][AsnR]-NH2
modifications: bridge 10-14; not fully specified (bridges); printed as Ac-PL3-Asp-Npg-B5-Asp-3COOHF-Ala-Ala-Phe-Orn*3-PyrS2-3Thi-BztA-AsnR*3-NH2; reading uncertain

NanoBRET Abs IC50 [1]: > 10000 nM | IC50 [2]: < 50 nM
B6: I-30 (peptide)
peptide: Ac-[αAllylPro]D[tBuAla][B5(4)]D[Phe(3-COOH)][TriAzLys(3)]AF[sAla][PyrS2(6)][3Thi][Bta]Q-NH2
modifications: triazole 7-10; not fully specified (bridges); printed as Ac-PL3-Asp-Npg-B5-Asp-3COOHF-TriAzLys*3-Ala-Phe-sAla*3-PyrS2-3Thi-BztA-Gln-NH2; reading uncertain

NanoBRET Abs IC50 (bin >1.5 uM) [1]: < 3000 nM | IC50 [2]: < 50 nM
B7: I-21 (peptide)
peptide: Ac-[PL3]D[tBuAla][B5(4)]D[Phe(3-COOH)]AAF[TriAzLys″][PyrS2″][2F3MeF][Bta][sAla]-NH2
modifications: triazole 10-14; not fully specified (bridges); printed as Ac-PL3-Asp-Npg-B5-Asp-3COOHF-Ala-Ala-Phe-TriAzLys*3-PyrS2-2F3MeF-BztA-sAla*3-NH2; reading uncertain

NanoBRET Abs IC50 (bin >3.0 uM) [1]: < 10000 nM | IC50 [2]: < 50 nM
B8: I-14 (peptide)
peptide: Ac-[αAllylPro]DL[B5(4)]D[Phe(3-COOH)]AAF[dGlnR][PyrS2(5)][3Thi][Bta]K-NH2
modifications: bridge 10-14; not fully specified (bridges); printed as Ac-PL3-Asp-Leu-B5-Asp-3COOHF-Ala-Ala-Phe-DGlnR*3-PyrS2-3Thi-BztA-Lys*3-NH2; reading uncertain; also: DGlnR10 and Lys14 marked *3

NanoBRET Abs IC50 (bin >3.0 uM) [1]: < 10000 nM | IC50 [2]: < 50 nM
B9: I-33 (peptide)
peptide: Ac-[αAllylPro]D[tBuAla][B5(4)]D[Phe(3-COOH)]AAF[GlnR][PyrS2(6)][3Thi][Bta]K-NH2
modifications: bridge 10-14; not fully specified (bridges); printed as Ac-PL3-Asp-Npg-B5-Asp-3COOHF-Ala-Ala-Phe-GlnR*3-PyrS2-3Thi-BztA-Lys*3-NH2; reading uncertain

NanoBRET Abs IC50 (bin >3.0 uM) [1]: < 10000 nM | IC50 [2]: < 50 nM
B10: I-24 (peptide)
peptide: Ac-[αAllylPro]D[tBuAla][B5(4)]D[Phe(3-COOH)]AAF[sAla][PyrS2(6)][3Thi][Bta][TriAzLys(3)]-NH2
modifications: triazole 10-14; not fully specified (bridges); printed as Ac-PL3-Asp-Npg-B5-Asp-3COOHF-Ala-Ala-Phe-sAla*3-PyrS2-3Thi-BztA-TriAzLys*3-NH2; reading uncertain

NanoBRET Abs IC50 (bin >1.5 uM) [1]: < 3000 nM | IC50 [2]: < 50 nM
B11: I-42 (peptide)
peptide: Ac-[αAllylPro]D[tBuAla][B5(5)]D[Phe(3-COOH)]AAFK[PyrS2(5)][3Thi][Bta][GlnR]A-NH2
modifications: bridge 10-14; reading uncertain; also: PL3/B5/PyrS2 staple links not placed, printed as Ac-PL3-Asp-Npg-B5-Asp-3COOHF-Ala-Ala-Phe-Lys*3-PyrS2-3Thi-BztA-GlnR*3-Ala-NH2

NanoBRET Abs IC50 (bin >3.0 uM) [1]: < 10000 nM | IC50 [2]: < 50 nM
B12: I-38 (peptide)
peptide: Ac-[αAllylPro]D[tBuAla][B5(5)]D[Phe(3-COOH)]AAF[GlnR][PyrS2(5)][3Thi][Bta][Orn]-NH2
modifications: bridge 10-14; not fully specified (bridges); printed as Ac-PL3-Asp-Npg-B5-Asp-3COOHF-Ala-Ala-Phe-GlnR*3-PyrS2-3Thi-BztA-Orn*3-NH2; reading uncertain

NanoBRET Abs IC50 [1]: > 10000 nM | IC50 [2]: < 50 nM
B13: I-29 (peptide)
peptide: Ac-[αAllylPro]D[tBuAla][B5(4)]DD[TriAzLys(3)]AF[sAla][PyrS2(6)][3Thi][Bta]Q-NH2
modifications: triazole 7-10; not fully specified (bridges); printed as Ac-PL3-Asp-Npg-B5-Asp-Asp-TriAzLys*3-Ala-Phe-sAla*3-PyrS2-3Thi-BztA-Gln-NH2; reading uncertain

NanoBRET Abs IC50 (bin >3.0 uM) [1]: < 10000 nM | IC50 [2]: < 50 nM
B14: I-37 (peptide)
peptide: Ac-[αAllylPro]D[tBuAla][B5(5)]D[Phe(3-COOH)]AAF[Orn][PyrS2(5)][3Thi][Bta][GlnR]-NH2
modifications: bridge 10-14; not fully specified (bridges); printed as Ac-PL3-Asp-Npg-B5-Asp-3COOHF-Ala-Ala-Phe-Orn*3-PyrS2-3Thi-BztA-GlnR*3-NH2; reading uncertain

NanoBRET Abs IC50 [1]: > 10000 nM | IC50 [2]: < 50 nM
Binder: Ac-[αAllylPro]D[tBuAla][B5″]DDAAF[TriAzLys][PyrS2″][3Thi][Bta][Abu(4-yl)]-NH2 (triazole 10-14; also: PL3-B5 and PyrS2 links not placed) [I-17]

NanoBRET Abs IC50 (bin >3.0 uM) [1]: < 10000 nM | IC50 [2]: < 50 nM
B15: I-19 (peptide)
peptide: Ac-[PL3]D[tBuAla][B5(4)]D[Phe(3-COOH)]AAF[TriAzLys″][PyrS2″][3Thi][Bta][sAla]-NH2
modifications: triazole 10-14; not fully specified (bridges); printed as Ac-PL3-Asp-Npg-B5-Asp-3COOHF-Ala-Ala-Phe-TriAzLys*3-PyrS2-3Thi-BztA-sAla*3-NH2; reading uncertain

NanoBRET Abs IC50 (bin >3.0 uM) [1]: < 10000 nM | IC50 [2]: < 50 nM
B16: I-25 (peptide)
peptide: Ac-[αAllylPro]D[tBuAla][B5(4)]D[Phe(3-COOH)]AAF[sAla][PyrS2(6)][2F3MeF(4)][Bta][TriAzLys(3)]-NH2
modifications: triazole 10-14; not fully specified (bridges); printed as Ac-PL3-Asp-Npg-B5-Asp-3COOHF-Ala-Ala-Phe-sAla*3-PyrS2-2F3MeF-BztA-TriAzLys*3-NH2; reading uncertain

NanoBRET Abs IC50 [1]: > 10000 nM | IC50 [2]: < 50 nM
B17: I-31 (peptide)
peptide: Ac-[αAllylPro]D[tBuAla][B5(4)]D[Phe(3-COOH)][TriAzLys(3)]AF[sAla][PyrS2(6)][2F3MeF(4)][Bta]Q-NH2
modifications: triazole 7-10; not fully specified (bridges); printed as Ac-PL3-Asp-Npg-B5-Asp-3COOHF-TriAzLys*3-Ala-Phe-sAla*3-PyrS2-2F3MeF-BztA-Gln-NH2; reading uncertain

NanoBRET Abs IC50 (bin >3.0 uM) [1]: < 10000 nM | IC50 [2]: < 50 nM
B18: I-34 (peptide)
peptide: Ac-[αAllylPro]D[tBuAla][B5(5)]D[Phe(3-COOH)]AAFK[PyrS2(5)][3Thi][Bta][AsnR]-NH2
modifications: bridge 10-14; not fully specified (bridges); printed as Ac-PL3-Asp-Npg-B5-Asp-3COOHF-Ala-Ala-Phe-Lys*3-PyrS2-3Thi-BztA-AsnR*3-NH2; reading uncertain

NanoBRET Abs IC50 (bin >3.0 uM) [1]: < 10000 nM | IC50 [2]: < 50 nM
B19: I-23 (peptide)
peptide: Ac-[PL3]D[tBuAla][B5(4)]DDAAF[sAla][PyrS2″][3Thi][Bta][TriAzLys″]-NH2
modifications: triazole 10-14; not fully specified (bridges); printed as Ac-PL3-Asp-Npg-B5-Asp-Asp-Ala-Ala-Phe-sAla*3-PyrS2-3Thi-BztA-TriAzLys*3-NH2; reading uncertain
